We go through 33 sequences from the supplement of paper PMC9170038.

This data set relates to MS2 coat protein. Description: apparent KD of MS2 coat protein; designed switch direction (-1 OFF switch, 1 ON switch): -1; higher = weaker reporter binding. In short, it runs like this:
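Normalised cluster fluorescence was curve-fitted, and each design's median over clusters is its apparent KD. Before this, SNAP-549-labelled MS2 coat protein was titrated from 0.7 or 1.5 nM, doubling to 3 µM, over RNA switches transcribed on Illumina chips by stalled E. coli RNA polymerase. Titrations had no input, 200 uM small-molecule ligand, or an oligonucleotide input, and steps lasted 0.8–1.5 h (lowest) to 10–20 min (highest).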

Where [1] appears, read: Eterna round: R95, input ligand: microRNA oligo, concentration not stated.
Where [2] appears, read: Eterna round: R95, input ligand: FMN 200 uM.
The mark [3] stands for this setting: Eterna round: R95, input ligand: none.
Setting [4] is: input ligand: microRNA oligo, concentration not stated.

For “GUGUACGUAGGAUAUACAUGAGGAUCACCCAUGUGAAUAAGAUAGAAUAAGAUAAAGUGUAGAAGGACGAGUGU [Excluse me!!! 6 - Jieux - Exclusion 3] (puzzle: Exclusion 3)”, the “apparent KD of MS2 coat protein” value under setting [1] worked out at 30.4 nM.

For the sequence “GUGUAGACAGGAUAUGCUUUGAGCAUAUGAGAGUAUGCUCUACAUGAGGAUCACCCAUGUAGAAGGGUCUACAC [LRO-Excl2-01] (puzzle: Exclusion 2)”, the “apparent KD of MS2 coat protein” value under setting [1] stood at 11 nM.

As for “GUGUAGAUAGGAUAUGCGUGAGUCUAGCGAAGCUAGGCUCUACAUGAGGAUCACCCAUGUAGAAGGGUCUACAC [Dot plot directed A v14] (puzzle: Exclusion 2)”, the “apparent KD of MS2 coat protein” value under setting [1] came out at 17.3 nM.

For “GUGUAGCAAGGAUAUACAUGAGGAUCACCCAUGUGAAUAAGAUAGAAUAAGAUAAAGUGUAGAAGGUGUAGUGU [Excluse me!!! 10 - Jieux - Exclusion 3] (puzzle: Exclusion 3)”, the “apparent KD of MS2 coat protein” value under setting [1] came to 37.2 nM.

Regarding “GUGUAGUAAGGAUAUAGAAAGAGGGAGUAAGAUAGAGAGUUCUAGAAGGUACAUGAGGAUCACCCAUGUUGGAG [JR_Exclu4_Sub082] (puzzle: Exclusion 4)”, the “apparent KD of MS2 coat protein” value stood at 24.9 nM under setting [2], 28.9 nM under setting [1] and 27.8 nM under setting [3].

As for “GUGUAGUGAGGAUAUACAUGAGGAUCACCCAUGUGAAUAAGAUAGAAUAAGAUAAAGUGUAGAAGGCACAGUGU [Excluse me!!! 3 - Jieux - Exclusion 3] (puzzle: Exclusion 3)”, the “apparent KD of MS2 coat protein” value by setting is: under setting [2], 39.5 nM; under setting [1], 35.7 nM; under setting [3], 41.9 nM.

For the sequence “GUGUAGUUAGGAUAUGCUGGAAUCUAGCGAAGCUAGGUUCCACAUGAGGAUCACCCAUGUAGAAGGGACUACAC [Dot plot directed A v10] (puzzle: Exclusion 2)”, under setting [1], the “apparent KD of MS2 coat protein” value came out at 168 nM.

Consider “GUGUGCACGCUGCGAUCCUACAUGAGGAUCACCCAUGUGGUCUGGUGGCGUGGGUCACCGGACUUGGCUCGUCUUGC [salish99_S_TOV1_R5_072] (Eterna round: R97, puzzle: Sensor, turn-off variant 1)”, for which the “apparent KD of MS2 coat protein” value runs as follows: (input ligand: FMN 200 uM) 35.6 nM; (input ligand: none) 35.8 nM.

“GUGUGCAGACGGAGAUCCUACAUGAGGAUCACCCAUGUCUCACUAGCUUUUUGCUCGUCUUAUCCUCCUCUGUUCUC [Elimod 26 - Jieux - Sensor, turn-off variant 1] (Eterna round: R97, puzzle: Sensor, turn-off variant 1)”: the “apparent KD of MS2 coat protein” value came out at 295 nM (input ligand: FMN 200 uM) and 497 nM (input ligand: none).

In the case of “GUGUGCAGAGGAUAUACAGAGGAAAAGAAGAAAGAAGAGGGACAUGAGGAUCACCCAUGUAGAAGGCUGAGUGU [Excluse me!! 24 - Jieux - Exclusion 2] (puzzle: Exclusion 2)”, the “apparent KD of MS2 coat protein” value under setting [1] worked out at 30.4 nM.

“GUGUGGCCUGUAGGAUAUGGUUCCGUUUCGGUUCCAGAAGGACACGAGGAUACAUGAGGAUCACCCAUGUGCUCGUCACUGUGC [salish99_ExNG1_r04_404] (Eterna round: R96, puzzle: Exclusion NG 1)”: the “apparent KD of MS2 coat protein” value reads like this: (input ligand: FMN 200 uM) 13.2 nM; under setting [4], 11.5 nM; (input ligand: none) 18.2 nM.

Regarding “GUGUGUUGAUUAGGAUAUGCUCUAAGCAAUCGGGCAGAAGGAGUUAGACAUGAGGAUCACCCAUGUAAAUAUCGGAUCCCAACG [Eternabot solution 17] (Eterna round: R96, puzzle: Exclusion NG 1)”, the “apparent KD of MS2 coat protein” value reads like this: (input ligand: FMN 200 uM) 18.6 nM; under setting [4], 16.2 nM; (input ligand: none) 19.3 nM.

In the case of “GUUAAACAUGAGGAUCACCCAUGUAAGGAUAUGCUGCGGUCGCGAUGAAGUGACUGCAGCAGAAGGUACAAAUG [Mat - Mod of JL D59] (puzzle: Exclusion 1)”, the “apparent KD of MS2 coat protein” value is, setting by setting: under setting [2], 89.8 nM; under setting [1], 92 nM; under setting [3], 102 nM.

On to “GUUAAACAUGAGGAUCACCCAUGUAAGGAUAUGCUGCGGUCGCGAUGAAGUGACUGCAGCAGAAGGUACAAUUG [Mat - Mod of JL D52] (puzzle: Exclusion 1)”, for which the “apparent KD of MS2 coat protein” value under setting [1] is 88.8 nM.

Regarding “GUUAAACAUGAGGAUCACCCAUGUAAGGAUAUGCUGCGGUCGCGCUGACGUGACUGCAGCAGAAGGUACAAUUG [Mat - Mod of JL D51] (puzzle: Exclusion 1)”, the “apparent KD of MS2 coat protein” value under setting [1] came out at 64.8 nM.

On to “GUUAACGAAGAGGAUAUAUGAUAUCAAAGCUUCAUAGAAGGCUUCACAUGAGGAUCACCCAUGUGAUCUUCAAU [jl-ex6-4.08 ViennaUCT mod] (Eterna round: R97, puzzle: Exclusion 6)”, for which the “apparent KD of MS2 coat protein” value (input ligand: FMN 200 uM) came to 232 nM and the “apparent KD of MS2 coat protein” value (input ligand: none) turned out to be 42.6 nM.

With “GUUAACGAAGAGGAUAUAUGAUAUCAAAGCUUCAUAGAAGGCUUCACAUGAGGAUCACCCAUGUGAUCUUCUUU [jl-ex6-4.09 ViennaUCT mod] (Eterna round: R97, puzzle: Exclusion 6)”, the “apparent KD of MS2 coat protein” value was 44.2 nM (input ligand: FMN 200 uM) and 15.1 nM (input ligand: none).

For the sequence “GUUAAGGUAGGAUAUACGAUAAUAUAGGGUAGAUAUAUAACACAUGAGGAUCACCCAUGUAGAAGGACCAAGUG [Mat - Exclusion 2 - Mod of my Tesla design - D60] (puzzle: Exclusion 2)”, the “apparent KD of MS2 coat protein” value under setting [1] is 43.4 nM.

As to “GUUAAGUGAGGAUAUGGUGAGUAGUGCCUGAGCGCUGCUCACCAGAAGGCACAUGAGGAUCACCCAUGUAUAGC [JL-ex4-2.06 denovo] (puzzle: Exclusion 4)”, under setting [1], the “apparent KD of MS2 coat protein” value amounted to 15.2 nM.

As for “GUUAGACAUGAGGAUCACCCAUGUGAGGAUAUGAUGCGAAUAAUGAAUGAAGAAAGCAUCAGAAGGCACAUAUG [Mat - Mod of Hyphema D29] (puzzle: Exclusion 1)”, the “apparent KD of MS2 coat protein” value was 375 nM under setting [2], 296 nM under setting [1] and 221 nM under setting [3].

In the case of “GUUAGUAUCUAGGAUAUCUAGUACAUAGUAUCUAGAGAAGGAGAUACAUGAGGAUCACCCAUGUUCUGUGUUCU [Exclusion 6 - 1:c] (puzzle: Exclusion 6)”, the “apparent KD of MS2 coat protein” value under setting [1] turned out to be 21.9 nM.

As for “GUUAGUUAAGGAUAUACAGGGAGCUGCGGCGUCUCGCCGCAACAUGAGGAUCACCCAUGUAGAAGGUAGCCGUU [JL ViennaUCT Enbibi mod 8] (puzzle: Exclusion 2)”, the “apparent KD of MS2 coat protein” value under setting [1] was determined as 53.2 nM.

With “GUUAGUUAAGGAUAUACUGGGAGCUGCGGCGUCUCGCCGCAACAUGAGGAUCACCCAUGUAGAAGGUGGCCAUU [JL ViennaUCT Enbibi mod 4] (puzzle: Exclusion 2)”, under setting [1], the “apparent KD of MS2 coat protein” value was 640 nM.

For the sequence “GUUAUCGCAGGAUAUUAGUACUUGUACAUGAGGAUCACCCAUGUUUAUUGGGACUAAGAAUAAGAAGGGCGAUGAA [JR_Ex5_Sub004] (Eterna round: R97, puzzle: Exclusion 5)”, the “apparent KD of MS2 coat protein” value is 21 nM (input ligand: FMN 200 uM) and 17.8 nM (input ligand: none).

“GUUCAACAUGAGGAUCACCCAUGUCAGGAUAUGCGAAUUUCAUCAAAAGAUGAAAUUUGCAGAAGGGACUGAAC [Omei Ex1 A30] (Eterna round: R97, puzzle: Exclusion 1)”: the “apparent KD of MS2 coat protein” value by setting is: (input ligand: FMN 200 uM) 30.5 nM; (input ligand: none) 27.2 nM.

Regarding “GUUCUGACAGGAUAUACAUGAGGAUCACCCAUGUGCCCUUAGAGAUGCAAAGCAUCUCGUAGAAGGGUCUGAAC [Omei Ex3 Model Bachelor's Dilema v28] (Eterna round: R97, puzzle: Exclusion 3)”, the “apparent KD of MS2 coat protein” value was determined as 38.5 nM (input ligand: FMN 200 uM) and 31.6 nM (input ligand: none).

For “GUUGUACAUGAGGAUCACCCAUGUCAGGAUAUCCACCUCAGAAAGUAUACAGGAUUGUGGAGAAGGGACAUUAA [EX1 C.18] (Eterna round: R97, puzzle: Exclusion 1)”, the “apparent KD of MS2 coat protein” value by setting is: (input ligand: FMN 200 uM) 56 nM; (input ligand: none) 48.5 nM.

Regarding “GUUGUUACUGAGGAUAUUAUUUUAUUCGAUUGAUAAGAAGGCAGUACAUGAGGAUCACCCAUGUGGGUAGUUAG [Polaris21] (Eterna round: R97, puzzle: Exclusion 6)”, the “apparent KD of MS2 coat protein” value runs as follows: (input ligand: FMN 200 uM) 270 nM; (input ligand: none) 338 nM.

“GUUGUUUAUGUAGGAUAUGCCAGGCGAGCCUAAGCAGAAGGACAUGAGGAUCACCCAUGUAUUGCGGUCUGCGUUCAGAUCGCU [salish99_ExNG1_r4_017] (Eterna round: R96, puzzle: Exclusion NG 1)”: the “apparent KD of MS2 coat protein” value reads like this: (input ligand: FMN 200 uM) 63.5 nM; under setting [4], 18.3 nM; (input ligand: none) 23.7 nM.

On to “GUUGUUUAUGUAGGAUAUGCCUGGCGUGCCUUUGCAGAAGGACAUGAGGAUCACCCAUGUAACAUGAGGCUCACCCAUGUCGCU [salish99_ExNG1_r04_108] (Eterna round: R96, puzzle: Exclusion NG 1)”, for which the “apparent KD of MS2 coat protein” value was determined as 397 nM (input ligand: FMN 200 uM), 159 nM under setting [4] and 296 nM (input ligand: none).

For the sequence “GUUUAAUUAGGAUAUGCAAGCGGUGUUAGAAAAGUAUCCAAACAUGAGGAUCACCCAUGUAGAAGGAGUUGUUG [Eternabot (L2) Solution 59] (Eterna round: R97, puzzle: Exclusion 2)”, the “apparent KD of MS2 coat protein” value runs as follows: (input ligand: FMN 200 uM) 28.5 nM; (input ligand: none) 30.2 nM.

As to “GUUUACAAGCUAAGAUCCUACAUGAGGAUCACCCAUGUGGUCCGGUGACGUGAGUCACCGGACUUAGCUCGUCUUGG [salish99_S_TOV1_R5_090] (Eterna round: R97, puzzle: Sensor, turn-off variant 1)”, the “apparent KD of MS2 coat protein” value (input ligand: FMN 200 uM) was determined as 66 nM and the “apparent KD of MS2 coat protein” value (input ligand: none) came out at 66.7 nM.

Regarding “GUUUAGUGAGGAUAUGUGGCUUCGAUCGUGCGCGGUCUGCUACAGAAGGCACAUGAGGAUCACCCAUGUUCCUC [salish99_ex4_r4_308] (Eterna round: R97, puzzle: Exclusion 4)”, the “apparent KD of MS2 coat protein” value (input ligand: FMN 200 uM) turned out to be 579 nM and the “apparent KD of MS2 coat protein” value (input ligand: none) is 123 nM.
